Laboratory results taken from PMC8615460.
Each block holds one binder with its values, some of them ahead of it. Ends that are not written are not given here.

Assays:
[1] = target: full-length San1 (lysine residues changed to arginines) (Saccharomyces cerevisiae) (UniProt P22470)
[2] = target: San1_(1–303) (lysine residues changed to arginines) (Saccharomyces cerevisiae) (UniProt P22470)
[3] = target: San1_(1–303) (lysine residues changed to arginines) (Saccharomyces cerevisiae) (UniProt P22470); remark: listed apart in the source

multi-turnover ubiquitylation: fraction of peptide substrate ubiquitylated, 5 to 15 min, substrate to San1 ratios 6:1 to 18:1 [1]: 50%
multi-turnover ubiquitylation: fraction of peptide substrate ubiquitylated, same incubation period and 18:1 substrate to ligase ratio [2]: 15%
B1: San1 peptide, radiolabeled (peptide)
peptide: Ac-CGSRRGSYNASSGEQMLSRTGFFLVLIVGQPLHNPVK
modifications: also: 32P phosphate added by cAMP-dependent protein kinase, residue not given here

limited proteolysis with chymotrypsin: stability of San1(1-303) with peptide substrate against without substrate [3]: 30 fold
limited proteolysis: fraction of radiolabeled San1(1-303) intact with chymotrypsin after 30 min, with excess peptide substrate [3]: 50%
Binder: Ac-CGSRRGSYNASSGEQMLSRTGFFLVLIVGQPLHNPVK [San1 peptide, unlabeled]
